In test [1] the target is Biotinylated IL-4R (human) (UniProt P24394). In words: competitive ELISA; IL-4 coated, biotinylated IL-4R preincubated with scFv; reference dupilumab.
The target of test [2] is Human IL-4R-Fc (human) (UniProt P24394). In words: SPR. Background: SPR reads the build-up and loss of mass on a sensor chip optically.
Test [3] has as its target Biotinylated IL-4R (human) (UniProt P24394). In words: competitive ELISA; IL-4 coated, biotinylated IL-4R preincubated with scFv, streptavidin-HRP. (In an ELISA, binding on a coated surface is turned into a signal by an enzyme label.)
Test [4] has as its target Human IL-4R-Fc (human) (UniProt P24394). In words: SPR (Biacore T200); human IL-4R-Fc captured via anti-human IgG-Fc, scFv as analyte; 1:1 model.

Positions count from the first letter of the chain named.

Biotinylated IL-4R (human), sequence (P24394 26-232 limits assumed): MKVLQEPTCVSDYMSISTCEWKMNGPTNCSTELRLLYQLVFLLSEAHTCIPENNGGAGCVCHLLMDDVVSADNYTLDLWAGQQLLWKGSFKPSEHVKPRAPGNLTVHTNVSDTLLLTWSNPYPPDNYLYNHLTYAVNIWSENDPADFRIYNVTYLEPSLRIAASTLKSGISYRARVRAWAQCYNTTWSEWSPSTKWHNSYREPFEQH
Human IL-4R-Fc (human), sequence (P24394 26-232 limits assumed): as above

B1: PRO1517 (scFv, from another filing)
scFv: DIQMTQSPSSLSASVGDRVTITCQASEDIESYLAWYQQKPGKAPKLLIYRASTLAYGVPSRFSGSGSGTDFTLTISSLQPEDFATYYCLGSSYSTGSNIFGTGTKVTVLGGGGGSGGGGSGGGGSGGGGSEVQLVESGGGLVQPGGSLRLSCAASGFSSSSAHYMCWVRQAPGKGLEWIGCIYAGSRGSTYYASWAKGRFTISRDNSKNTVYLQMNSLRAEDTAVYYCARAAFVNRGVSWIWPYYFSLWGQGTLVTVSS
Molecule B1 came in with a rel. IC50 (IC50, dupilumab/IC50 test sample) in test [1] of 3.46. In the test with Human IL-4R-Fc (human) [2], this molecule came in with a Kd of less than 0.5 nM. Besides, in test [3], the IC50 turned out to be 0.54 ng/mL.

B2: PRO1535 (scFv, from another filing)
scFv: B1 scFv with A43P, V132S, G180A, R204K, Y227F
In the case of B2, the rel. IC50 (IC50, dupilumab/IC50 test sample) in test [1] came out at 0.98. This molecule displayed a Kd in the test with Human IL-4R-Fc (human) [2] of less than 0.5 nM. The molecule further registered a 50% inhibitory concentration (IC50) in test [3] of 1.92 ng/mL. For the same molecule, in the test with Human IL-4R-Fc (human) [4], the Kd was determined as 0.0199 nM, the koff was 5.42e-05 s⁻¹ and the kon came out at 2.72e+06 M⁻¹ s⁻¹.

In general, Kd refers to the concentration at which binding is half-saturated. For orientation: IC50 means the concentration needed to halve the response being measured. A low value points to greater potency. Usually koff stands for the rate constant with which the complex falls apart. High values mean fast dissociation, low ones slow dissociation. In general, kon refers to a measure of how fast the partners come together. Read a high kon as fast association.
